For twelve proteins, Km, kcat and kcat/Km results are on record in article PMC3908897.

Common to all, as to assay: purified protein
What all share (settings): 50 mM Tris pH 8.0, 0.1 mM MnCl2, 25°C

Substrate in series [1]: O=C(O)CCC(=O)C1=CC=C[C@@H](O)[C@@H]1C(=O)O
The format is biochemical, Thermobifida fusca.

Substrate in series [2]: O=C(O)CCC(=O)C1=CC=C[C@@H](O)[C@@H]1C(=O)O
The format is biochemical, Thermosynechococcus vestitus.

Substrate in series [3]: O=C(O)CCC(=O)C1=CC=C[C@@H](O)[C@@H]1C(=O)O
The format is biochemical, Escherichia coli.

Substitutions are numbered along the chain they refer to. Numbers in names are those of the source.

B1: T. fusca OSBS (Thermobifida fusca YX; N71A) (protein)
chain: MTGRAFAIPLRTRFRGITVREGMLVRGAAGWGEFSPFAEYGPRECARWWAACYEAAELGWPAPVRDTVPVAATVPAVGPEEAARIVASSGCTTAKVKVAERGQSEANDVARVEAVRDALGPRGRVRIDVNGAWDVDTAVRMIRLLDRFELEYVEQPCATVDELAEVRRRVSVPIAADESIRRAEDPLRVRDAEAADVVVLKVQPLGGVRAALRLAEECGLPVVVSSAVETSVGLAAGVALAAALPELPYACGLATLRLLHADVCDDPLLPVHGVLPVRRVDVSEQRLAEVEIDPAAWQARLAAARAAWEQVEREPGP
As usually defined, the Km is the substrate concentration at which the rate is half of its maximum. In general, kcat refers to the number of substrate molecules converted per active site and unit of time at saturation. The kcat/Km is the second-order rate constant that governs catalysis at low substrate concentration. For the protein B1, in “purified protein [1]”, the Michaelis-Menten constant (Km) turned out to be 322 ± 56 µM, the kcat is 10 ± 0.7 s⁻¹ and the kcat/Km came out at 31000 M⁻¹ s⁻¹.

B2: T. fusca OSBS (Thermobifida fusca YX; G252A) (protein)
chain: B1 chain with A71N, G252A
With B2, in the series “purified protein [1]”, the Michaelis-Menten constant (Km) turned out to be 86 ± 6 µM, the turnover number (kcat) is 16 ± 0.3 s⁻¹ and the kcat/Km worked out at 190000 M⁻¹ s⁻¹.

B3: T. fusca OSBS (Thermobifida fusca YX; G252T) (protein)
chain: B1 chain with A71N, G252T
Take B3: in “purified protein [1]”, the Km was 668 ± 72 µM, the kcat was 13 ± 0.7 s⁻¹ and the kcat/Km amounted to 19000 M⁻¹ s⁻¹.

B4: T. fusca OSBS (Thermobifida fusca YX; R126M) (protein)
chain: B1 chain with A71N, R126M
Consider B4, for which, in the series “purified protein [1]”, the Km worked out at 470 ± 42 µM, the kcat worked out at 104 ± 4 s⁻¹ and the kcat/Km was 220000 M⁻¹ s⁻¹.

B5: T. fusca OSBS (Thermobifida fusca YX; R15A) (protein)
chain: B1 chain with R15A, A71N
Turning to B5, in “purified protein [1]”, the Km is 7 ± 1.4 µM, the kcat came out at 0.6 ± 0.02 s⁻¹ and the kcat/Km stood at 86000 M⁻¹ s⁻¹.

B6: T. fusca OSBS (Thermobifida fusca YX) (protein)
chain: B1 chain with A71N
On to B6, for which, in “purified protein [1]”, the Km was determined as 182 ± 22 µM, the kcat worked out at 122 ± 4.6 s⁻¹ and the kcat/Km was found to be 670000 M⁻¹ s⁻¹.

B7: T. fusca OSBS (Thermobifida fusca YX; F37A) (protein)
chain: B1 chain with F37A, A71N
Regarding B7, in the series “purified protein [1]”, the Km is 666 ± 151 µM, the kcat was found to be 163 ± 19 s⁻¹ and the kcat/Km was 250000 M⁻¹ s⁻¹.

B8: T. elongatus OSBS (Thermosynechococcus vestitus BP-1) (protein)
chain: MRWQWRIYEEPLQEPLTTAQGVWRSRSGIYLRLEDEQGQVGYGEIAPLPGWGSETLNADIALCQQLPGHLTPEIMATIPEALPAAQFGFATAWQSVGRLPYRVRPWPICALLGSGQAALEQWQQSWQRGQTTFKWKVGVMSPEEEQAILKALLAALPPGAKLRLDANGSWDRATANRWFAWLDRHGNGKIEYVEQPLPPDQWQALLSLAQTVTTAIALDESVVSAAEVQRWVDRGWPGFFVIKTALFGDPDSLSLLLRRGLEPQRLVFSSALEGAIARTAIFHLLETWQPCHALGFGVDRWRSAPLLTTLTAYERLWERLDQ
With B8, in the series “purified protein [2]”, the Km was determined as 78 ± 17 µM, the turnover number (kcat) amounted to 80 ± 4 s⁻¹ and the kcat/Km was 1e+06 M⁻¹ s⁻¹.

B9: T. elongatus OSBS (Thermosynechococcus vestitus BP-1; G295A) (protein)
chain: B8 chain with G295A
With B9, in the series “purified protein [2]”, the Km was 304 ± 82 µM, the kcat is 4 ± 0.4 s⁻¹ and the kcat/Km is 13000 M⁻¹ s⁻¹.

B10: E. coli OSBS (Escherichia coli K-12; A107N) (protein)
chain: MRSAQVYRWQIPMDAGVVLRDRRLKTRDGLYVCLREGEREGWGEISPLPGFSQETWEEAQSVLLAWVNNWLAGDCELPQMPSVAFGVSCALAELTDTLPQAANYRANPLCNGDPDDLILKLADMPGEKVAKVKVGLYEAVRDGMVVNLLLEAIPDLHLRLDANRAWTPLKGQQFAKYVNPDYRDRIAFLEEPCKTRDDSRAFARETGIAIAWDESLREPDFAFVAEEGVRAVVIKPTLTGSLEKVREQVQAAHALGLTAVISSSIESSLGLTQLARIAAWLTPDTIPGLDTLDLMQAQQVRRWPGSTLPVVEVDALERLL
Take B10: in “purified protein [3]”, the Km was found to be 109 ± 17 µM, the kcat came out at 32 ± 1.9 s⁻¹ and the kcat/Km stood at 290000 M⁻¹ s⁻¹.

B11: E. coli OSBS (Escherichia coli K-12; L109T) (protein)
chain: B10 chain with N107A, L109T
For the protein B11, in the series “purified protein [3]”, the Km stood at 83 ± 17 µM, the kcat worked out at 3.6 ± 0.3 s⁻¹ and the kcat/Km was determined as 43000 M⁻¹ s⁻¹.

B12: E. coli OSBS (Escherichia coli K-12; R20S) (protein)
chain: B10 chain with R20S, N107A
Turning to B12, in “purified protein [3]”, the Km amounted to 22 ± 0.1 µM, the kcat is 0.5 ± 0.1 s⁻¹ and the kcat/Km was 23000 M⁻¹ s⁻¹.
